This experiment has as its target T1, human complement component C5 (Homo sapiens, UniProt P01031).
T1 construct: complement C5 beta chain, human, cut product of the C5 precursor; complement C5 alpha chain, human, cut product of the C5 precursor; also called Human C5; C5 antigen; source: purified as described previously (Laursen et al., 2010; Schatz-Jakobsen et al., 2016)
Nature of the experiment: BLI; Octet RED; histidine-tagged Nbs immobilised on Anti-Penta-HIS biosensors at 2.5 µg/ml; C5 62.5 to 2000 nM in PBS; association 700 s, dissociation 1800 s; global fit. Particulars: both partners purified. A general note: Biolayer interferometry detects binding as a change in optical thickness at a sensor tip.

This note sets out measurements from article PMC5633906, “Introducing site-specific cysteines into nanobodies for mercury labelling allows de novo phasing of their crystal structures” (Acta Crystallographica. Section D, Structural Biology, 2017).

B1: native Nb36 nanobody (VHH)
VHH: QVQLVESGGGLVQAGGSLRLSCVVSGSAVSDYAMGWYRQAPGKQRELVAAIYNSGRTNYVDSVKGRFTISKDNAKKTVYLQMNSLKPEDTADYFCNLLGATTMSNAVWGQGTQVTVSS
notes: Selected by phage display from a llama immunised with human C5; construct in pET-22b(+) with an N-terminal PelB signal for secretion into the periplasm; also called nonmodified Nb36; Nb36-Nat1; source: E. coli LOBSTR, purified (Ni Sepharose, Superdex 75); not shown: 6xHis, C-terminal, kept
As for B1, the dissociation constant Kd – broadly, the concentration at which binding is half-saturated – was around 86 nM.

B2: PCMB-labelled Nb36-C85 (VHH)
VHH: QVQLVESGGGLVQAGGSLRLSCVVSGSAVSDYAMGWYRQAPGKQRELVAAIYNSGRTNYVDSVKGRFTISKDNAKKTVYLQMNCLKPEDTADYFCNLLGATTMSNAVWGQGTQVTVSS
notes: as the VHH of m1 with Ser85Cys (position 82b in the Kabat nomenclature); Construct in pET-22b(+) with an N-terminal PelB signal for secretion into the periplasm; In the crystals the benzoate moiety of PCMB was not seen; also called Nb36 Ser85Cys labelled with PCMB; Hg-labelled Nb36-C85; source: E. coli LOBSTR, purified (Ni Sepharose, Superdex 75), labelled with PCMB; not shown: 6xHis, C-terminal, …
B2 gave a dissociation constant Kd of around 37 nM.
